According to PMC7478166 (Hepatology (Baltimore, Md.), 2020):

T1: p52Shc lacking SH2 domain (p52ShcΔSH2), terminally biotinylated (biotin, terminal (end not stated))
T1 chain: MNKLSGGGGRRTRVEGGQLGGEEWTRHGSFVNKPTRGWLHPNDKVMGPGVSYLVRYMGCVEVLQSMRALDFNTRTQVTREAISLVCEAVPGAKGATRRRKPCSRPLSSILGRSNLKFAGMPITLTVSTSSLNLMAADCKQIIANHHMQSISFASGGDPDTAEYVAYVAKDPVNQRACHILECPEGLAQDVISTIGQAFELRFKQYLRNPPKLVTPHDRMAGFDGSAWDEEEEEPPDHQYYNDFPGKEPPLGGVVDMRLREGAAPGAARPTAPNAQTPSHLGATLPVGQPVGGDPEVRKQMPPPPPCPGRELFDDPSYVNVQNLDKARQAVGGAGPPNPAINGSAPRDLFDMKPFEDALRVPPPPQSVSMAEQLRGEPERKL

T2: full-length p52Shc, terminally biotinylated (UniProt P29353-2 1-473, biotin, terminal (end not stated))
T2 sequence (looked up): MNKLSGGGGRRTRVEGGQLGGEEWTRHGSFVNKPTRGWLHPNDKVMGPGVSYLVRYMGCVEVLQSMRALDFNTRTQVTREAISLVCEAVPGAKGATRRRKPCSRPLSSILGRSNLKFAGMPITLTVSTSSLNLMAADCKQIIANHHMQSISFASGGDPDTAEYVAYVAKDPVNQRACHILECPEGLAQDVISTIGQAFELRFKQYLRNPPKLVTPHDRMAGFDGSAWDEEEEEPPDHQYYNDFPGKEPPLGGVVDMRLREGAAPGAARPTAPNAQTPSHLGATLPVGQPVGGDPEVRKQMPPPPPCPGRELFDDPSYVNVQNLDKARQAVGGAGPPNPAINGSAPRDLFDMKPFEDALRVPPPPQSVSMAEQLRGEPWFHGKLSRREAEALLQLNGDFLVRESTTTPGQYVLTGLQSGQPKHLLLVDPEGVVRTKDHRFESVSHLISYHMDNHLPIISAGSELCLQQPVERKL

T3: non-phosphorylated full size p52Shc (treated with alkaline phosphatase) (UniProt P29353-2 1-473, biotin, terminal (end not stated))
T3 sequence (looked up): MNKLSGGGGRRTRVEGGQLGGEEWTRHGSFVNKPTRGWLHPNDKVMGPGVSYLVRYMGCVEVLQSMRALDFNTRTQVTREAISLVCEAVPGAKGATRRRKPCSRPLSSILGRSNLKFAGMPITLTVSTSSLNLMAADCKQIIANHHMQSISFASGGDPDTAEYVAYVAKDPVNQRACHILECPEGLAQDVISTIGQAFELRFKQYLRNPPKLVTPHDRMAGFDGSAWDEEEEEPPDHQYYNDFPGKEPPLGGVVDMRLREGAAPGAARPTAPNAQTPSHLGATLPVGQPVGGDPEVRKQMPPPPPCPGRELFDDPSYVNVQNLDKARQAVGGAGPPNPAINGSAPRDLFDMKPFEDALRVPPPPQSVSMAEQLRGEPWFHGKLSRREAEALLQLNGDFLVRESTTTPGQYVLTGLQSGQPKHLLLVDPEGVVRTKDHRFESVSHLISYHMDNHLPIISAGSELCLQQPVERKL


What was measured:
Experiment in all cases: BLI
[1] = target: p52Shc lacking the PTB domain (p52ShcΔPTB), terminally biotinylated
[2] = target: T1, p52Shc lacking SH2 domain (p52ShcΔSH2), …
[3] = target: T2, full-length p52Shc, terminally …
[4] = target: T3, non-phosphorylated full size p52Shc …

fold weaker affinity than full-length p52Shc [1]	EC50 [2]	Kd [3]	Kd [4]	Molecule
10 fold				p47^phox::His (not biotinylated) (from UniProt P14598 1-390) (natural protein)
	> 50000 nM	200 nM	780 nM	p47^phox::His (not biotinylated) (natural protein, UniProt P14598 1-390, looked up) MGDTFIRHIALLGFEKRFVPSQHYVYMFLVKWQDLSEKVVYRRFTEIYEFHKTLKEMFPIEAGAINPENRIIPHLPAPKWFDGQRAAENRQGTLTEYCSTLMSLPTKISRCPHLLDFFKVRPDDLKLPTDNQTKKPETYLMPKDGKSTATDITGPIILQTYRAIANYEKTSGSEMALSTGDVVEVVEKSESGWWFCQMKAKRGWIPASFLEPLDSPDETEDPEPNYAGEPYVAIKAYTAVEGDEVSLLEGEAVEVIHKLLDGWWVIRKDDVTGYFPSMYLQKSGQDVSQAQRQIKRGAPPRRSSIRNAHSIHQRSRKRLSQDAYRRNSVRFLQQRRRQARPGPQSPGSPLEEERQTQRSKPQPAVPPRPSADLILNRCSESTKRKLASAV
